Laboratory results from patent US20130315928A1 (published 2013).
Changes are numbered by the printed parent chain.

B1: monoclonal antibody 9A4 A7 D3 (hybridoma CNCM I-4333) (antibody, V domains shown)
VH: EVQLQESGAELVRPGTSVKISCKASGYTFTNYWLGWVKQRPGHGLEWIGDIYPGGGYTNYNEKFKGKATLTADTSSSTAYMQLSSLTSEDSAVYFCARTPLYGSSYGGFAYWGQGTLVTVSA
VL: KTQTTSSLSASLGDRVTISCSASQGISNYLNWYQQKPDGTVKLLIYYTSSLHSGVPSRFSGSGSGTDYSLTISNLEPEDIATYYCQQYSKLPWTFGGGTKLEIK
notes: Hybridoma antibody raised against ovine LH; The VL as determined begins KTQTTSS; also called MAb D3; IgM D3
B2: monoclonal antibody 9A4 D4 B6 (hybridoma CNCM I-4334) (antibody, V domains shown)
VH: B1 VH with E6Q
VL: DIVMTQATSSLSASLGDRVTISCSASQGISNYLNWYQQKPDGTVKLLIYYTSSLHSGVPSRFSGSGSGTDYSLTISNLEPEDIATYYCQQYSKLPWTFGGGTKLEIK
notes: Hybridoma antibody raised against ovine LH; also called MAb B6; IgM B6
B3: monoclonal antibody 1A6 C4 G11 (hybridoma CNCM I-4332) (antibody, V domains shown)
VH: B1 VH with Q3K, E6Q
VL: B2 VL with V3Q, A7T
notes: Hybridoma antibody raised against ovine LH; also called MAb G11; IgM G11

Key:
[1] = molecular target: T1, ovine luteinizing hormone (ovine, UniProt P01218 25-120; P01231 21-141); test: cell-based or functional assay
[2] = molecular target: T2, ovine follicle-stimulating hormone (ovine, UniProt P01218 25-120; P01227 20-129); test: cell-based or functional assay
[3] = molecular target: T3, equine choriogonadotropin (eCG) or PMSG (equine, UniProt P01220 25-120; P08751 21-169); test: ELISA on adsorbed commercial eCG
T3 construct: They are written as one protein; also called commercial eCG (Synchro Part, CEVA); purified eCG (6000 IU/mg)
T3 sequence (P01220 25-120 limits assumed, chain 1 of 2): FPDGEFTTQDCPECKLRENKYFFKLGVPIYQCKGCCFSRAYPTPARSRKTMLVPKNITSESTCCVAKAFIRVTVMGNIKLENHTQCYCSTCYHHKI
T3 sequence (P08751 21-169 limits assumed, chain 2 of 2): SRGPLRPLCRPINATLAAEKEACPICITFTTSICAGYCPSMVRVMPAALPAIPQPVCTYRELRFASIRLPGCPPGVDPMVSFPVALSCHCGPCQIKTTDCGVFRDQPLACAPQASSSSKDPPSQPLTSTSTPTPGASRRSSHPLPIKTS
Experimental: (§1) After washing five times, a secondary antibody (peroxidase-coupled mouse anti-IgM, Jackson Laboratories) was incubated for 1 h at 37° C. (100 μl/well). After washing five times, the peroxidase is developed with TMB (100 μl/well), for 30 min at room temperature and then stopped with 1M H₂SO₄ (50 μl/well).
(§2) In the same way, the antibodies were evaluated on the commercial eCG (Synchro Part, CEVA, Libourne, France) used in treatments for induction of ovulation in sheep and goats. An isotypic control (IgM directed against another type of antigen very remote from the gonadotropic hormones). Each antibody was incubated at a concentration of 10 μg/ml and 1 μg/ml.

[4] = molecular target: T3, equine choriogonadotropin (eCG) or PMSG; test: ELISA on commercial eCG, antibody at 1 µg/ml
Experimental: as §1, §2

[5] = molecular target: T3, equine choriogonadotropin (eCG) or PMSG; test: ELISA on commercial eCG, antibody at 10 µg/ml
Experimental: as §1, §2

[6] = molecular target: porcine luteinizing hormone (porcine, UniProt P01219 25-120; P01232 21-141); test: ELISA, hormone adsorbed at 2 µg/ml, anti-IgM peroxidase; relative to oLH
Experimental: as §1

[7] = molecular target: bovine luteinizing hormone (bovine, UniProt P01217 25-120; P04651 21-141); test: as above
Experimental: as §1

[8] = molecular target: T4, human chorionic gonadotropin (human, UniProt P01215 25-116; P0DN86 21-165); test: as above
T4 construct: Alpha/beta heterodimer; also called hCG
T4 sequence (P01215 25-116, chain 1 of 2, other chains not shown): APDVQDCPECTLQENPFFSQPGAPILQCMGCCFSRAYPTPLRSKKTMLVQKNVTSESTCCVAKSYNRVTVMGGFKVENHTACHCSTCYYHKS
Experimental: as §1

[9] = molecular target: porcine follicle-stimulating hormone (porcine, UniProt P01219 25-120; P01228 21-129); test: ELISA, hormone adsorbed at 2 µg/ml, anti-IgM peroxidase; relative to oFSH
Experimental: as §1

[10] = molecular target: bovine follicle-stimulating hormone (bovine, UniProt P01217 25-120; P04837 21-129); test: as above
Experimental: as §1

[11] = molecular target: T5, human follicle-stimulating hormone (human, UniProt P01215 25-116; P01225 19-129); test: as above
T5 construct: Alpha/beta heterodimer; also called hFSH; human FSH
T5 sequence (P01215 25-116, chain 1 of 2): as the sequence (P01215 25-116, chain 1 of 2, other chains not shown) above
T5 sequence (P01225 19-129, chain 2 of 2): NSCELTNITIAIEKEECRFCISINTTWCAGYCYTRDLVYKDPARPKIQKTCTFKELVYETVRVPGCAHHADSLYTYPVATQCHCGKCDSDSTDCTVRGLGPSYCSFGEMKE
Experimental: as §1

[12] = molecular target: T1, ovine luteinizing hormone; test: ELISA, hormone adsorbed at 2 µg/ml, MAb at 0.1-1-10 µg/ml, anti-IgM peroxidase; oLH is the 100% reference
[13] = molecular target: T2, ovine follicle-stimulating hormone; test: ELISA, hormone adsorbed at 2 µg/ml, MAb at 0.1-1-10 µg/ml, anti-IgM peroxidase; oFSH is the 100% reference
[14] = molecular target: T3, equine choriogonadotropin (eCG) or PMSG; test: ELISA on purified eCG (6000 IU/mg)

Binder | potentiating effect on cAMP secretion (in vitro bioassay) [1] [%] | potentiating effect on cAMP secretion (in vitro bioassay) [2] [%] | binding result [3] | OD [4] [OD] | OD [5] [OD] | percentage of cross reaction (OD hormone tested / OD ovine hormone x 100) [6] [%] | percentage of cross reaction (OD hormone tested / OD ovine hormone x 100) [7] [%] | percentage of cross reaction (OD hormone tested / OD ovine hormone x 100) [8] [%] | percentage of cross reaction (OD hormone tested / OD ovine hormone x 100) [9] [%] | percentage of cross reaction (OD hormone tested / OD ovine hormone x 100) [10] [%] | percentage of cross reaction (OD hormone tested / OD ovine hormone x 100) [11] [%] | percentage of cross reaction (OD hormone tested / OD ovine hormone x 100) [12] [%] | percentage of cross reaction (OD hormone tested / OD ovine hormone x 100) [13] [%] | binding result [14]
B1 | 150 | 150 | no binding (tested: 10 µg/ml and 1 µg/ml) | 0.102 | 0.091 | 170 | 121 | 72 | 100 | 460 | 100 | 100 | 100 | 
B2 | 150 | 150 | no binding (tested: 10 µg/ml and 1 µg/ml) | 0.078 | 0.088 | 168 | 122 | 97 | 137 | 430 | 100 | 100 | 100 | 
B3 |  |  |  | 0.088 | 0.09 | 140 | 100 | 68 | 230 | 380 | 113 | 100 | 100 | no binding
